Experimental data taken from US20100255485A1, “BIOMARKERS FOR THE ONSET OF NEURODEGENERATIVE DISEASES” (priority 2007, published 2010).

Key:
SOD1(G93A) mice [1] = test: Intramuscular Salubrinal into one hindlimb of SOD1(G93A) mice: ER stress, UPR, microglia activation, neuromuscular junctions; assay type: in vivo
embryonic motor neuron = details: cited from earlier work
[2] = test system: murine models of inherited progressive motor degeneration; details: CNTF and/or BDNF; cited from earlier work
motoneurons = details: in vivo; cited from earlier work
SOD1(G93A) mice [3] = test: Intramuscular CNTF in SOD1(G93A) mice: stress responses in VUL MNs and microglia activation; assay type: in vivo
SOD1(G93A) mice [4] = details: intramuscular applications of CNTF; stated as known effect; cited from earlier work
[5] = early treatment P14 until P32, analyzed at P39
[6] = early treatment P14 until P32, analyzed at P53
[7] = late treatment P39 until P50, analyzed at P53
[8] = CNTF intramuscular from P28 to P40

O=C(/C=C/c1ccccc1)NC(NC(=S)Nc1cccc2cccnc12)C(Cl)(Cl)Cl (centres unmarked) [Salubrinal]
disease process during the Salubrinal treatments (SOD1(G93A) mice [1]; early and late treatments taken together): partially reversed
disease process during administration (SOD1(G93A) mice [1]; early treatment P14 until P32): effectively arrested
UPR (SOD1(G93A) mice [1]; [5]): no evidence of a UPR
microglia activation (SOD1(G93A) mice [1]; [5]): no microglia activation
levels of BiP (SOD1(G93A) mice [1]; early treatment P14 until P32, analyzed at P39 (7 days after discontinuation)): low levels
loss of synaptic vesicles at neuromuscular junctions (SOD1(G93A) mice [1]; [6]): no loss
microglia activation (SOD1(G93A) mice [1]; [6]): mild microglia activation
UPR (SOD1(G93A) mice [1]; early treatment P14 until P32, analyzed at P53 (21 days after discontinuation)): early signs of a UPR
UPR (SOD1(G93A) mice [1]; [7]): mild UPR
loss of neuromuscular junction synaptic vesicles (SOD1(G93A) mice [1]; [7]): no loss
microglia activation (SOD1(G93A) mice [1]; [7]): mild microglia activation

IGF-1: neurotrophic factor
embryonic motor neuron survival in culture (embryonic motor neuron): enhanced

LIF: cytokine
embryonic motor neuron survival in culture (embryonic motor neuron): enhanced

B1: BDNF: member of the neurotrophin family (protein, UniProt P23560 19-247, looked up)
Neurotrophic factor BDNF …: APMKEANIRGQGGLAYPGVRTHGTLESVNGPKAGSRGLTSLADTFEHVIEELLDEDQKVRPNEENNKDADLYTSRVMLSSQVPLEPPLLFLLEEYKNYLDAANMSMRVRRHSDPARRGELSVCDSISEWVTAADKKTAVDMSGGTVTVLEKVPVSKGQLKQYFYETKCNPMGYTKEGCRGIDKRHWNSQCRTTQSYVRALTMDSKKRIGWRFIRIDTSCVCTLTIKRGR
embryonic motor neuron survival in culture (embryonic motor neuron): enhanced
protective effect in two murine models of inherited progressive motor degeneration [2]: protective effect
motoneuronal death occurring naturally during embryonic development (motoneurons): reduction

B2: cardiotrophin-1: cytokine present in embryonic muscle (protein, UniProt Q16619 1-201, looked up)
Cardiotrophin-1: MSRREGSLEDPQTDSSVSLLPHLEAKIRQTHSLAHLLTKYAEQLLQEYVQLQGDPFGLPSFSPPRLPVAGLSAPAPSHAGLPVHERLRLDAAALAALPPLLDAVCRRQAELNPRAPRLLRRLEDAARQARALGAAVEALLAALGAANRGPRAEPPAATASAASATGVFPAKVLGLRVCGLYREWLSRTEGDLGQLLPGGSA
embryonic motor neuron survival in culture (embryonic motor neuron): enhanced
motoneuronal death occurring naturally during embryonic development (motoneurons): reduction

B3: NT-4: member of the neurotrophin family (protein, UniProt P34130 81-210, looked up)
Neurotrophin-4: GVSETAPASRRGELAVCDAVSGWVTDRRTAVDLRGREVEVLGEVPAAGGSPLRQYFFETRCKADNAEEGGPGAGGGGCRGVDRRHWVSECKAKQSYVRALTADAQGRVGWRWIRIDTACVCTLLSRTGRA
embryonic motor neuron survival in culture (embryonic motor neuron): enhanced

B4: NT-3: member of the neurotrophin family (protein, UniProt P20783 139-257, looked up)
Neurotrophin-3: YAEHKSHRGEYSVCDSESLWVTDKSSAIDIRGHQVTVLGEIKTGNSPVKQYFYETRCKEARPVKNGCRGIDDKHWNSQCKTSQTYVRALTSENNKLVGWRWIRIDTSCVCALSRKIGRT
embryonic motor neuron survival in culture (embryonic motor neuron): enhanced

B5: GDNF: neurotrophic factor (protein, UniProt P39905 78-211, looked up)
Glial cell line-derived …: SPDKQMAVLPRRERNRQAAAANPENSRGKGRRGQRGKNRGCVLTAIHLNVTDLGLGYETKEELIFRYCSGSCDAAETTYDKILKNLSRNRRLVSDKVGQACCRPIAFDDDLSFLDDNLVYHILRKHSAKRCGCI
embryonic motor neuron survival in culture (embryonic motor neuron): enhanced
motoneuronal death occurring naturally during embryonic development (motoneurons): reduction

B6: CNTF: CNTF rat recombinant protein (Sigma Aldrich); specific stress-protecting factor (protein, UniProt P20294 1-200, looked up)
Ciliary neurotrophic factor: MAFAEQTPLTLHRRDLCSRSIWLARKIRSDLTALMESYVKHQGLNKNINLDSVDGVPVASTDRWSEMTEAERLQENLQAYRTFQGMLTKLLEDQRVHFTPTEGDFHQAIHTLMLQVSAFAYQLEELMVLLEQKIPENEADGMPATVGDGGLFEKKLWGLKVLQELSQWTVRSIHDLRVISSHQMGISALESHYGAKDKQM
embryonic motor neuron survival in culture (embryonic motor neuron): enhanced
protective effect in two murine models of inherited progressive motor degeneration [2]: protective effect
upregulation of BiP in VUL MNs (SOD1(G93A) mice [3]; CNTF intramuscular from P20 to P28, before disease onset): completely prevented
UPR/UPS reaction (SOD1(G93A) mice [3]; [8]): effectively prevented
VUL MN BiP and Pi-elF2a signals (SOD1(G93A) mice [3]; [8]): normalized
activation of microglia on the spinal cord side ipsilateral to the treatment (SOD1(G93A) mice [3]; [8]): reduced
downregulation of stress-related protective pathways in VUL MNs (SOD1(G93A) mice [3]; [8]): counteracted
motoneuronal death occurring naturally during embryonic development (motoneurons): reduction
axonal pathology in VUL MNs (SOD1(G93A) mice [4]): effectively attenuates
disease progression (SOD1(G93A) mice [4]): slows
